Experimental data: patent publication US12312412 (dated 2025)
Positions count from the first letter of the chain named. Numbers in names are those of the source.

B1: MA 86-A4 CC (K2W) (antibody, V domains shown)
VH: QVQLVESGGGVVQPGRSLRLSCAASGFTFSTYGMHWVRQAPGKCLEWVAVISYDASNKYYAESVKGRFTISRDNSKNTLYLQMNSLRAEDTAVYYCARGQLLTGYWGQGTLVTVSS
VL: DIQMTQSPSSLSASVGDRVTITCRASQGISNYLAWYQQKPGKVPKLLIYAASTLQSGVPSRFSGSGSGTDFTLTISSLQPEDFATYYCQKYNSAPFTFGCGTKVEIK
B2: MA 86-A4-N-F5 CC (M4H) (antibody, V domains shown)
VH: B1 VH with S56E, N57T, K58V, Y59K
VL: B1 VL with F83V
B3: MA 10-B5 CC (H6H) (antibody, V domains shown)
VH: EVQLVESGGGLVQPGGSLRLSCAASGFTFSNAWMSWVRQAPGKCLEWVGRIRSRSYGGTTDYAAPVKGRFTISRDDSKNTLFLQMNSLKTEDTAVYYCTTPSYSGSYYNYFSVMDVWGQGTTVTVSS
VL: DIQMTQSPSSLSASVGDRVTITCRTSQSISSYLNWYQQKPGRAPKLLIFAASSLQGGVPSRFSGSGSGTDFTLTISSLQPEDFATYYCQQTYSMPFTFGCGTKVEIK
B4: MA 10-D6 CC (V6Z) (antibody, V domains shown)
VH: B3 VH with Q13K, R52L, S53N, R54N, S55A, F82Y
VL: B3 VL with E105D
B5: MA 10-D3 CC (O6B) (antibody, V domains shown)
VH: B3 VH with R52T, R54S, S55R
VL: B3 VL with E105D
B6: MA 10-H3 CC (M9L) (antibody, V domains shown)
VH: B3 VH with S55P, F82Y
VL: B3 VL with M94S, V104L
B7: MA 10-G2 CC (T1S) (antibody, V domains shown)
VH: B3 VH with R52L, R54M, S55H, F82Y
VL: B3 VL with Y36F, R42K, G56S, E105D
B8: MA 09-H7 CC (T3S) (antibody, V domains shown)
VH: QITLKESGPALVKPTQTLTLTCTFSGFSFTTHKMGVDWIRQPPGKCLEWLALIYWNDDKRYSPSLQSRLTITKDTSKNQVVLTMTNMDPVDTATYYCAYRRYNWNYENWFDPWGQGTLVTVSS
VL: DIQMTQSPSSLSASVGDRVTITCQASQDISNYLNWYQQKPGKAPKLLIYAASSLQSGVPSRFSGSGSGTDFTLTISSLQPEDFATYYCQQSYFPVVEFGCGTKVEIK
B9: MA 10-G10 AS CC (T1I) (antibody, V domains shown)
VH: EVQLLESGGGLVQPGGSLRLSCAASGFTFSSHAMSWVRQAPGKCLEWVSAISGSGGGTYNAASVKGRFTISRDNSKNTLYLQMNSLRAEDTAVYYCATGKGVHLGFDYWGQGTLVTVSS
VL: SYVLTQPPSVSVAPGQTARITCGGNNIGSKSVHWYQQKPGQAPVMVVYDDNDRPSGIPERFSGSNSGNTATLTISRVEAGDEADYYCQVWDYVAPRHVFGCGTKLTVL
B10: MA 03-E11 AS CC (G2B) (antibody, V domains shown)
VH: B9 VH with V93A, A97V
VL: B9 VL with V93Y, A94S, P95N, H97A
B11: MA 03-C7_AS CC (G2H) (antibody, V domains shown)
VH: B9 VH with N60Y
VL: B9 VL with V93E, A94R, R96A, H97M
B12: MA 03-D12_AS CC (L6A) (antibody, V domains shown)
VH: B9 VH with N60Y, G66A
VL: B9 VL with V93L, A94R, P95Q, R96Q, H97Q
B13: MA 03-E7_AS CC (L6M) (antibody, V domains shown)
VH: B9 VH with L11V, G16R, N60Y, V64G, V93A, A97V
VL: B9 VL with V93N, A94M, P95N, R96V, H97W
B14: MA 03-G11_AS CC (O4R) (antibody, V domains shown)
VH: B9 VH with Q13K, N60Y, G105N
VL: B9 VL with M45L, S66F, T73I, V93L, A94L, R96G, H97Q
B15: MA 03-H12_AS CC (K5A) (antibody, V domains shown)
VH: B9 VH with V93A, A97V
VL: B9 VL with S66F, A94T, H97W

Each binder was assayed against MAGEB2 peptide … / HLA-A*02:01 / b2m (human) (assay: FACS).

Kd [nM] | Binder
35.5 | B1
51.8 | B2
0.7 | B3
0.7 | B4
1.1 | B5
0.7 | B6
1 | B7
0.8 | B8
1.7 | B9
4.2 | B10
1.5 | B11
0.7 | B12
0.5 | B13
1.3 | B14
1.1 | B15
